Experimental data from patent US20250263440A1, “CD38-BINDING AGENTS AND USES THEREOF” (PeptiDream Inc., priority 2019, published 2025).
Like-named read-outs stand apart in the source and are kept apart here. Positions of bridges follow the written chain, without caps; N, C: chain ends. Non-standard residues stand in square brackets, D forms with d. Residues, ends and D or L forms follow the SMILES beside them. No end group written: not given here. PEG12 = NCCOCCOCCOCCOCCOCCOCCOCCOCCOCCOCCOCCOCCC(=O)O; Bip = N[C@@H](Cc1ccc(-c2ccccc2)cc1)C(=O)O; NMeF = CN[C@@H](Cc1ccccc1)C(=O)O; Ahp(2) = CCCCC[C@H](N)C(=O)O; PEG4 = NCCOCCOCCOCCOCCC(=O)O

How the values were obtained:
CD38 [1] = target: T1, CD38 (Homo sapiens, UniProt P28907); experiment: ELISA binding assay of I-1 / I-2 sequence variants to CD38
T1 construct: purchased R&D Systems
Description: Recombinant human CD38 proteins were purchased from R&D Systems. In some embodiments, the following codons were used. ClAc-Ala: N-Chloroacetyl-L-alanine; MePhe: N-Methyl-L-phenylalanine; MeGly: N-Methyl-glycine; Ahp: (S)-2-aminoheptanoic acid; Bph: (S)-3-([1,1′-biphenyl]-4-yl)-2-aminopropanoic acid.
A number of compounds having similar structures to compound I-1 (difference being amino acid sequence) were prepared and assessed in an ELISA assay. The first sequence is of I-1, and SEQ ID.NO.1.
A number of compounds having similar structures to compound I-2 (difference being amino acid sequence) were prepared and assessed in an ELISA assay. The first sequence is of I-2, and SEQ ID NO. 2.

CD38 [2] = target: T1, CD38; experiment: SPR assay (BIACORE T200, Sensor Chip CM3, single-cycle kinetics) of binding to immobilized CD38; details: for kon / koff: SPR Biacore T200, CM3 chip, HBS-EP with 1% DMSO; for kon: read-out: Ka (association rate constant); for koff: read-out: Kd (dissociation rate constant); for Kd: pegylated compounds, SPR as in Example 2
Description: (§1) One of many useful technology for assessing CD38 binding is surface plasmon resonance (SPR). For example, the binding constant of I-1 (SEQ ID NO. 1; same as below) and I-2 (SEQ ID NO. 2; same as below) to CD38 was analyzed by a SPR assay using BIACORE T200 (cytiva: Former GE Healthcare). After the equilibration of Series S Sensor Chip CM3 (produced by cytiva: Former GE Healthcare) with Running Buffer (HBS-EP with 1% (v/v) DMSO), an EDC/NHS mixture was injected at a flow rate of […] for 4 minutes to thereby activate the functional groups on sensor chip. CD38 in 10 mM Acetate (pH5.5) was injected immobilized to at a flow rate of 5 L/min. For 4 minutes to immobilize the CD38 on the substrate surfaces of the sensor chip. Then Ethanolamine was injected at a flow rate of […] for 4 minutes. 1.0 M Ethanolamine (aq.) was injected at a flow rate of […] for 420 seconds for capping. 10 mM Peptides in DMSO were diluted to obtain 10 uM with Running Buffer, and prepared 100 nM, 50 nM, 25 nM, 10 nM, 5 nM of each peptide solutions (Peptide Samples).
(§2) Using these Peptide Samples, kinetics of peptides against CD38 was measured. The method adopted for sample measurement was a single-cycle kinetics method. The analysis was conducted using the evaluation software provided with Biacore T200. A DMSO correction curve obtained by solvent correction measurements was applied for the analysis. Kinetics fitting was done on the difference data obtained by subtracting the baseline data from sample measurement data.
(§3) KD values were calculated based on the association rate constant (ka) and dissociation rate constant (kd).
The binding constant of pegylated compounds was analyzed by a surface plasmon resonance as in the Example −2.

[3] = target: T2, Recombinant human CD38 protein (R&D Systems) (human, UniProt P28907 43-300); experiment: SPR (Biacore T200), single-cycle kinetics, CD38 immobilised on CM3 chip, 1:1 Binding model, 25 °C; figure legend names I-2 and the panel matches Table 4 (3.5*10^-8, rounded there)
Description: as §1, with “For example, the binding constant of I-1 (SEQ ID NO. 1; same as below) and I-2 (SEQ ID NO. 2; same as below) to CD38 was analyzed by a SPR assay using BIACORE T200 (cytiva: Former GE Healthcare).” left out
as §2, with “Kinetics fitting was done on the difference data obtained by subtracting the baseline data from sample measurement data.” left out
as §3

[4] = target: T2, Recombinant human CD38 protein (R&D …); experiment: SPR (Biacore T200), single-cycle kinetics, CD38 immobilised on CM3 chip, 1:1 Binding model, 25 °C; figure legend names I-2 and the panel matches Table 4 (1.3*10^-2, rounded there)
Description: as §1, with “For example, the binding constant of I-1 (SEQ ID NO. 1; same as below) and I-2 (SEQ ID NO. 2; same as below) to CD38 was analyzed by a SPR assay using BIACORE T200 (cytiva: Former GE Healthcare).” left out
as §2, with “Kinetics fitting was done on the difference data obtained by subtracting the baseline data from sample measurement data.” left out
as §3

[5] = target: T2, Recombinant human CD38 protein (R&D …); experiment: SPR (Biacore T200), single-cycle kinetics, CD38 immobilised on CM3 chip, 1:1 Binding model, 25 °C; figure legend names I-2 and the panel matches Table 4 (3.6*10^5, rounded there)
Description: as §1, with “For example, the binding constant of I-1 (SEQ ID NO. 1; same as below) and I-2 (SEQ ID NO. 2; same as below) to CD38 was analyzed by a SPR assay using BIACORE T200 (cytiva: Former GE Healthcare).” left out
as §2, with “Kinetics fitting was done on the difference data obtained by subtracting the baseline data from sample measurement data.” left out
as §3

[6] = target: T2, Recombinant human CD38 protein (R&D …); experiment: ELISA
[7] = target: T2, Recombinant human CD38 protein (R&D …); experiment: SPR (Biacore T200), CD38 immobilised on CM3 chip, single-cycle kinetics
Description: as §1, with “For example, the binding constant of I-1 (SEQ ID NO. 1; same as below) and I-2 (SEQ ID NO. 2; same as below) to CD38 was analyzed by a SPR assay using BIACORE T200 (cytiva: Former GE Healthcare).” left out
as §2, with “Kinetics fitting was done on the difference data obtained by subtracting the baseline data from sample measurement data.” left out
as §3

[8] = target: T2, Recombinant human CD38 protein (R&D …); experiment: SPR (Biacore T200), single-cycle kinetics, CD38 immobilised on CM3 chip, 1:1 Binding model, 25 °C; figure legend names I-1 and the panel matches Table 4 (2.3*10^-9, rounded there)
Description: as §1, with “For example, the binding constant of I-1 (SEQ ID NO. 1; same as below) and I-2 (SEQ ID NO. 2; same as below) to CD38 was analyzed by a SPR assay using BIACORE T200 (cytiva: Former GE Healthcare).” left out
as §2, with “Kinetics fitting was done on the difference data obtained by subtracting the baseline data from sample measurement data.” left out
as §3

[9] = target: T2, Recombinant human CD38 protein (R&D …); experiment: ELISA; remark: listed apart in the source
[10] = target: T2, Recombinant human CD38 protein (R&D …); experiment: SPR (Biacore T200), single-cycle kinetics, CD38 immobilised on CM3 chip, 1:1 Binding model, 25 °C; figure legend names I-1; Table 4 prints 1.8*10^-3 for this constant
Description: as §1, with “For example, the binding constant of I-1 (SEQ ID NO. 1; same as below) and I-2 (SEQ ID NO. 2; same as below) to CD38 was analyzed by a SPR assay using BIACORE T200 (cytiva: Former GE Healthcare).” left out
as §2, with “Kinetics fitting was done on the difference data obtained by subtracting the baseline data from sample measurement data.” left out
as §3

[11] = target: T2, Recombinant human CD38 protein (R&D …); experiment: SPR (Biacore T200), single-cycle kinetics, CD38 immobilised on CM3 chip, 1:1 Binding model, 25 °C; figure legend names I-1 and the panel matches Table 4 (7.7*10^5, rounded there)
Description: as §1, with “For example, the binding constant of I-1 (SEQ ID NO. 1; same as below) and I-2 (SEQ ID NO. 2; same as below) to CD38 was analyzed by a SPR assay using BIACORE T200 (cytiva: Former GE Healthcare).” left out
as §2, with “Kinetics fitting was done on the difference data obtained by subtracting the baseline data from sample measurement data.” left out
as §3

[12] = compounds similar to I-1, larger values indicate stronger binding
[13] = compounds similar to I-2, larger values indicate stronger binding

CCCCC[C@@H]1NC(=O)[C@H](CCCNC(=N)N)NC(=O)[C@H](C)NC(=O)CSC[C@@H](C(N)=O)NC(=O)[C@H](CC(=O)O)NC(=O)[C@H](CCCCC)NC(=O)[C@H](Cc2ccc(-c3ccccc3)cc2)NC(=O)[C@H](CC(C)C)NC(=O)[C@H](C(C)C)NC(=O)CNC(=O)[C@H](CC(=O)O)NC(=O)[C@H](Cc2c[nH]cn2)NC(=O)[C@H](Cc2ccc(O)cc2)NC1=O [I-1]
Binding Assay (CD38 [1]; [12]): 1.97 | kon (CD38 [2]): 770000 M⁻¹ s⁻¹ | koff (CD38 [2]): 0.0018 s⁻¹

A R Ahp Y A D G V L Bpb Ahp D C: compound of similar structure to I-1, difference being amino acid sequence: Ala at position 5 (YADGVL; not fully specified (N-terminus, C-terminus, bridges))
Binding Assay (CD38 [1]; [12]): 0.28

A R A Y H D G V L Bph Ahp D C: compound of similar structure to I-1, difference being amino acid sequence: Ala at position 3 (ARAYHDGVL[Bip][Ahp(2)]DC; not fully specified (N-terminus, bridges))
Binding Assay (CD38 [1]; [12]): 0.11

A A Ahp Y H D G V L Bph Ahp D C: compound of similar structure to I-1, difference being amino acid sequence: Ala at position 2 (YHDGVL[Bip][Ahp(2)]DC; not fully specified (N-terminus, bridges))
Binding Assay (CD38 [1]; [12]): 0.60

A L H A V L P Bph V W V C: compound of similar structure to I-2, difference being amino acid sequence: Ala at position 4 (ALHAVLP[Bip]VWVC; not fully specified (N-terminus, bridges))
Binding Assay (CD38 [1]; [13]): 0.10

A R Ahp A H D G V L Bph Ahp D C: compound of similar structure to I-1, difference being amino acid sequence: Ala at position 4 (AHDGVL[Bip][Ahp(2)]DC; not fully specified (N-terminus, bridges))
Binding Assay (CD38 [1]; [12]): 0.11

CCCCC[C@@H]1NC(=O)[C@H](CCCNC(=N)N)NC(=O)[C@H](C)NC(=O)CSC[C@@H](C(=O)NCCOCCOCCOCCOCCOCCOCCOCCOCCOCCOCCOCCOCCC(=O)N[C@@H](CCCCN)C(N)=O)NC(=O)[C@H](CC(=O)O)NC(=O)[C@H](CCCCC)NC(=O)[C@H](Cc2ccc(-c3ccccc3)cc2)NC(=O)[C@H](CC(C)C)NC(=O)[C@H](C(C)C)NC(=O)CNC(=O)[C@H](CC(=O)O)NC(=O)[C@H](Cc2c[nH]cn2)NC(=O)[C@H](Cc2ccc(O)cc2)NC1=O [I-4]
Kd (CD38 [2]): 4.3 nM

CC(C)C[C@@H]1NC(=O)[C@H](C)NC(=O)CSC[C@@H](C(=O)NCCOCCOCCOCCOCCC(=O)N[C@@H](CCCCN)C(N)=O)NC(=O)[C@H](C(C)C)NC(=O)[C@H](Cc2c[nH]c3ccccc23)NC(=O)[C@H](C(C)C)NC(=O)[C@H](Cc2ccc(-c3ccccc3)cc2)NC(=O)[C@@H]2CCCN2C(=O)[C@H](CC(C)C)NC(=O)[C@H](C(C)C)NC(=O)[C@H](Cc2ccccc2)N(C)C(=O)[C@H](Cc2c[nH]cn2)NC1=O [I-5] ({CH2CO}-ALH[NMeF]VLP[Bip]VWVC[PEG4]K-NH2; thioether N-12)
Kd (CD38 [2]): 10.5 nM

CC(C)C[C@@H]1NC(=O)[C@H](C)NC(=O)CSC[C@@H](C(N)=O)NC(=O)[C@H](C(C)C)NC(=O)[C@H](Cc2c[nH]c3ccccc23)NC(=O)[C@H](C(C)C)NC(=O)[C@H](Cc2ccc(-c3ccccc3)cc2)NC(=O)[C@@H]2CCCN2C(=O)[C@H](CC(C)C)NC(=O)[C@H](C(C)C)NC(=O)[C@H](Cc2ccccc2)N(C)C(=O)[C@H](Cc2c[nH]cn2)NC1=O [I-2] ({CH2CO}-ALH[NMeF]VLP[Bip]VWVC-NH2; thioether N-12)
Binding Assay (CD38 [1]; [13]): 1.69 | kon (CD38 [2]): 360000 M⁻¹ s⁻¹ | koff (CD38 [2]): 0.013 s⁻¹

CC(C)C[C@@H]1NC(=O)[C@H](C)NC(=O)CSC[C@@H](C(=O)NCCOCCOCCOCCOCCOCCOCCOCCOCCOCCOCCOCCOCCC(=O)N[C@@H](CCCCN)C(N)=O)NC(=O)[C@H](C(C)C)NC(=O)[C@H](Cc2c[nH]c3ccccc23)NC(=O)[C@H](C(C)C)NC(=O)[C@H](Cc2ccc(-c3ccccc3)cc2)NC(=O)[C@@H]2CCCN2C(=O)[C@H](CC(C)C)NC(=O)[C@H](C(C)C)NC(=O)[C@H](Cc2ccccc2)N(C)C(=O)[C@H](Cc2c[nH]cn2)NC1=O [I-6] ({CH2CO}-ALH[NMeF]VLP[Bip]VWVC[PEG12]K-NH2; thioether N-12)
Kd (CD38 [2]): 11.7 nM

A L H MeF V L P A V W V C: compound of similar structure to I-2, difference being amino acid sequence: Ala at position 8 (VLPAVWVC; not fully specified (N-terminus, bridges))
Binding Assay (CD38 [1]; [13]): 0.09

B1: Compound I-2 (SEQ ID NO. 2) (peptide)
peptide: ALHXVLPXVWVC
modifications: not fully specified; MePhe (N-methyl-L-phenylalanine) at 4; Bph at 8; cyclic peptide (N-terminal ClAc-Ala cyclised with the C-terminal Cys), structure given as a drawing
notes: Printed as Ala Leu His MePhe Val Leu Pro Bph Val Trp Val Cys
Kd [3]: 35.4 nM | koff [4]: 0.0127 s⁻¹ | kon [5]: 358000 M⁻¹ s⁻¹ | Binding Assay (larger values indicate stronger binding) [6]: 1.69 | Kd [7]: 35 nM

B2: Compound I-1 (SEQ ID NO. 1) (peptide)
peptide: {CH2CO}-AR[Ahp(2)]YHDGVL[Bip][Ahp(2)]DC
modifications: thioether N-13
notes: Ala Arg Ahp Tyr His Asp Gly Val Leu Bph Ahp Asp Cys
Kd [8]: 2.27 nM | Binding Assay (larger values indicate stronger binding) [9]: 1.97 | koff [10]: 0.00175 s⁻¹ | Kd [7]: 2.3 nM | kon [11]: 769000 M⁻¹ s⁻¹
